The supplement of paper PMC10126150
± gives the standard deviation of the averaged measurements.

tested on: ATP; assay: switch fluorescence ratio, 500 uM ATP over buffer (Cy3 cluster intensity, sum of 5 cycles each) (fold (ratio)); higher = stronger signal-on switching upon ATP binding; sequences stand for … in TCGTCGGCAGCGTCAGATGTGTATAAGAGACAGTTTTTTTTTTTTTTTTTTTTTTTTT…TC; details: aptamer strand: ATP DNA aptamer (quencher-CACCTGGGGGAGTATTGCGGAGGAAGG + anchor), 100 nM annealed; ATP concentration: 500 uM
Procedure, shortened: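 Per cluster, summed Cy3 intensity from the target cycles was divided by that from the buffer cycles to give the fluorescence ratio, then averaged per switch-domain sequence. Clusters outside 100-1000 RFU were excluded. The Cy3-labelled switching-strand clusters, on a modified Illumina MiSeq flow-cell, were annealed to 100 nM quencher-labelled ATP aptamer and imaged in selection buffer, then after 15 min with 500 uM ATP at 22 °C, for five cycles with NaOH stripping and re-annealing between them.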
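Further: ATP exposure 15 min at 22 °C before imaging.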

In order of falling switch fluorescence ratio:
1. GGCTACGGAA  2.32 ± 0.022
2. GGGAAAAATC  2.06 ± 1.5
3. GGCGCAATTG  2.04 ± 0.23
4. GGGAAAGGTG  1.54 ± 0.11
5. GGAGCATTTG  1.27 ± 0.039
6. GGCTTAGGTG  1.26 ± 0.06
7. GGAGGGAACT  1.2 ± 0.34
8. GGCTTCCCTG  1.19 ± 0.025
9. GGCACCACCT  1.157 ± 0.0082
10. GGCCGGAGAC  1.15 ± 0.041
11. GGCCCAGTAG  1.14 ± 0.062
12. GGAGTATTTT  1.12 ± 0.29
13. GGATTACGAC  1.12 ± 0.15
14. GGCCCCGGGG  1.11 ± 0.069
15. GGCAATAATA  1.09 ± 0.035
16. GGCCATACGT  1.09 ± 0.094
17. GGAGTATATC  1.08 ± 0.073
18. GGCTGTACAC  1.0831 ± 0.001
19. GGCGACTAAA  1.07 ± 0.057
20. GGCTACTTTA  1.07 ± 0.039
21. GGGAAAATTT  1.07 ± 0.059
22. GGAGCTGCGT  1.056 ± 0.0098
23. GGAGTACGGC  1.06 ± 0.052
24. GGAGGCCAGC  1.05 ± 0.075
25. GGCGTGGGGG  1.051 ± 0.01
26. GGATACTAGT  1.04 ± 0.069
27. GGATTGGGTG  1.04 ± 0.09
28. GGCACTAAGT  1.04 ± 0.036
29. GGCATCGGAC  1.04 ± 0.015
30. GGCCTATTCC  1.04 ± 0.011
31. GGCGCTCACA  1.04 ± 0.028
32. GGGAAACCAC  1.04 ± 0.02
33. GGGAAACGAG  1.04 ± 0.019
34. GGAGTACGG  1.03 ± 0.028
35. GGATATACTT  1.03 ± 0.024
36. GGATCATCGC  1.027 ± 0.0065
37. GGATCTTTTT  1.03 ± 0.026
38. GGATGATGCA  1.03 ± 0.028
39. GGCATAGAGG  1.03 ± 0.0032
40. GGCCGGTGTA  1.03 ± 0.013
41. GGCGCGAGAG  1.032 ± 0.0092
42. GGCTTGCAAC  1.03 ± 0.012
43. GGGAAAGCGC  1.03 ± 0.064
44. GGAGGGGCTG  1.02 ± 0.085
45. GGAGGTGTGT  1.02 ± 0.021
46. GGAGTCACTG  1.02 ± 0.017
47. GGATAAGGGG  1.02 ± 0.039
48. GGATCGGTCA  1.016 ± 0.0089
49. GGATGAGGCA  1.02 ± 0.022
50. GGATGAGTAT  1.02 ± 0.058
51. GGATGCTTTC  1.02 ± 0.026
52. GGATTAGGTC  1.02 ± 0.019
53. GGATTTTTTC  1.02 ± 0.037
54. GGCACGGGGC  1.02 ± 0.024
55. GGCATATGCT  1.02 ± 0.025
56. GGCATCAGGG  1.02 ± 0.013
57. GGCATTATTT  1.02 ± 0.023
58. GGCCTATCAC  1.016 ± 0.0078
59. GGCCTCATGC  1.02 ± 0.017
60. GGCGAAAGAG  1.02 ± 0.049
61. GGCGCGCATT  1.02 ± 0.018
62. GGCGCGGGGA  1.02 ± 0.045
63. GGCGGGTATG  1.0223 ± 0.00097
64. GGCGTAGGGG  1.02 ± 0.038
65. GGCTGTGAAC  1.02 ± 0.023
66. GGCTTAAGGT  1.02 ± 0.064
67. GGCTTATGTG  1.02 ± 0.051
68. GGGAAAACGC  1.02 ± 0.015
69. GGAGGGCAAA  1.01 ± 0.025
70. GGATGGTAGT  1.01 ± 0.071
71. GGATGTGGGT  1.011 ± 0.0037
72. GGATTACGGT  1.01 ± 0.03
73. GGATTCAGGG  1.01 ± 0.018
74. GGATTGGTGG  1.01 ± 0.024
75. GGATTTAGTA  1.01 ± 0.034
76. GGATTTGTGT  1.01 ± 0.034
77. GGATTTTATA  1.01 ± 0.024
78. GGCACAGATT  1.01 ± 0.019
79. GGCAGCTGGT  1.01 ± 0.03
80. GGCATGCCGG  1.014 ± 0.0089
81. GGCCAGCGGA  1.01 ± 0.024
82. GGCCCAGGAG  1.01 ± 0.017
83. GGCCGTTTTC  1.01 ± 0.00017
84. GGCCTCGGGG  1.01 ± 0.05
85. GGCGATTTTT  1.013 ± 0.0022
86. GGCGGTACGG  1.01 ± 0.0066
87. GGCTATCAAA  1.01 ± 0.018
88. GGCTCGGGAC  1.01 ± 0.039
89. GGCTGCACGG  1.013 ± 0.01
90. GGCTGGGGGA  1.01 ± 0.024
91. GGCTTACTAT  1.01 ± 0.02
92. GGGAAATTGA  1.01 ± 0.031
93. GGAGCGGACG  1 ± 0.016
94. GGAGTCATTT  1 ± 0.014
95. GGAGTCGTTA  1 ± 0.041
96. GGATGCCGGG  1 ± 0.043
97. GGATGGATTG  1.004 ± 0.0022
98. GGATGGGGCA  1 ± 0.023
99. GGATTATTTT  1 ± 0.012
100. GGATTTACGG  1.001 ± 0.0028
101. GGATTTATGA  1.002 ± 0.0092
102. GGCAGCCGGT  1 ± 0.036
103. GGCAGTAGTG  1.002 ± 0.0037
104. GGCATTTGTA  1 ± 0.02
105. GGCCTCTTGG  1 ± 0.011
106. GGCGACGGGG  1 ± 0.02
107. GGCGGCTACG  1.003 ± 0.0035
108. GGCGTAATTG  1 ± 0.032
109. GGCTCGTAGG  1 ± 0.024
110. GGCTGGCACA  1.002 ± 0.0085
111. GGCTGGCAGC  1 ± 0.016
112. GGCTGGGTTA  1 ± 0.026
113. GGGAAAAAAT  1 ± 0.035
114. GGGAAAACTA  1 ± 0.028
115. GGAGTGAGGT  0.999 ± 0.03
116. GGATGGAAAG  0.999 ± 0.015
117. GGCGGGGACG  0.999 ± 0.022
118. GGCGGTGGGT  0.999 ± 0.038
119. GGATGGGGAA  0.998 ± 0.024
120. GGATTAATCT  0.998 ± 0.019
121. GGCGGCGGGA  0.998 ± 0.027
122. GGCGGCGTCT  0.998 ± 0.036
123. GGATTTGCCT  0.997 ± 0.041
124. GGAGGCGTTT  0.996 ± 0.04
125. GGATAGGGGG  0.9963 ± 0.0012
126. GGCGTCGTAT  0.9961 ± 0.0015
127. GGAGTGAGCG  0.995 ± 0.036
128. GGATGGGGCC  0.995 ± 0.032
129. GGATGGGGCG  0.995 ± 0.027
130. GGATTGGGGG  0.995 ± 0.02
131. GGCATTGGCA  0.995 ± 0.041
132. GGAGGAGAGC  0.994 ± 0.015
133. GGATTAGTTT  0.994 ± 0.029
134. GGCGGTGGCG  0.994 ± 0.1
135. GGATGGCTCG  0.993 ± 0.051
136. GGATTAAGGG  0.993 ± 0.024
137. GGCATTTGGT  0.993 ± 0.025
138. GGCTACGGCG  0.993 ± 0.016
139. GGAGTAAAGA  0.992 ± 0.037
140. GGCATGTTTG  0.9917 ± 0.0027
141. GGCTGCAGCT  0.992 ± 0.016
142. GGCAGAGTTC  0.991 ± 0.013
143. GGCCGGATGG  0.991 ± 0.011
144. GGCTAAGAGT  0.991 ± 0.02
145. GGCTGCCAGT  0.9909 ± 0.0016
146. GGGAAATTTG  0.991 ± 0.026
147. GGATGCAGTT  0.99 ± 0.026
148. GGCTGGCGGG  0.99 ± 0.044
149. GGCATTCATT  0.989 ± 0.033
150. GGCCTAAATT  0.989 ± 0.031
151. GGCTGGCAGT  0.988 ± 0.015
152. GGGAAAGATA  0.988 ± 0.021
153. GGATAAGGTT  0.9871 ± 0.0022
154. GGCTTTGAGT  0.9873 ± 0.0066
155. GGCGGGGGGC  0.986 ± 0.026
156. GGCTTGAAGC  0.986 ± 0.018
157. GGAGTTGTTA  0.985 ± 0.013
158. GGATTTGGCG  0.985 ± 0.029
159. GGATAGTCAG  0.984 ± 0.016
160. GGCGATCATA  0.984 ± 0.024
161. GGCGTTTGCT  0.9827 ± 0.0086
162. GGCTTTCATT  0.983 ± 0.013
163. GGCTTTTAAC  0.9827 ± 0.0013
164. GGAGTTTTGA  0.982 ± 0.02
165. GGCTAGAGCT  0.982 ± 0.032
166. GGATGAAGGG  0.981 ± 0.022
167. GGATGCGGGA  0.98 ± 0.028
168. GGCCTAGTTT  0.9799 ± 0.0073
169. GGCGCTTTGT  0.979 ± 0.02
170. GGCTGTTGGG  0.978 ± 0.012
171. GGAGTCAGCG  0.977 ± 0.025
172. GGATGCCTTT  0.977 ± 0.026
173. GGATTGGAGT  0.977 ± 0.02
174. GGAGCTCGGG  0.975 ± 0.038
175. GGATTAGCGA  0.975 ± 0.025
176. GGCTGGATCT  0.975 ± 0.027
177. GGCTTAGAAT  0.97374 ± 0.00014
178. GGAGGTAAGG  0.973 ± 0.025
179. GGATCCATTC  0.972 ± 0.019
180. GGATTATGGA  0.971 ± 0.025
181. GGCAGCCGGG  0.97 ± 0.018
182. GGATTGAAGA  0.969 ± 0.091
183. GGCCGGCGTG  0.969 ± 0.031
184. GGCGGTTTGA  0.969 ± 0.014
185. GGCTCATTGG  0.969 ± 0.025
186. GGCAAAGGTA  0.968 ± 0.014
187. GGAGGGCACG  0.967 ± 0.053
188. GGAGGGGGCA  0.9654 ± 0.0011
189. GGCTTGTGTA  0.965 ± 0.015
190. GGAGTGCAG  0.964 ± 0.025
191. GGCCGATTGT  0.962 ± 0.024
192. GGAGGTTGGG  0.958 ± 0.013
193. GGATGGTGTT  0.958 ± 0.026
194. GGGAAAGCTG  0.956 ± 0.096
195. GGCGTGTCAG  0.951 ± 0.039
196. GGCAGCTGGG  0.946 ± 0.023
197. GGATTTATGT  0.94526 ± 0.00032
198. GGCTTGAGGG  0.942 ± 0.033
199. GGCATACCGG  0.936 ± 0.019
200. GGAGGAGGGC  0.909 ± 0.043
